Our source for the ELISA signal, Coating: OX-40 values is US20220332837A1.

The target of this test is OX40-6His Protein-196AAs-21.82 kDa (recombinant canine OX40) (canine). The test is described as follows: phage ELISA, OX-40 coated (control).
Sequence of OX40-6His Protein-196AAs-21.82 kDa (recombinant canine OX40) (canine) (chain, as listed by the source limits assumed): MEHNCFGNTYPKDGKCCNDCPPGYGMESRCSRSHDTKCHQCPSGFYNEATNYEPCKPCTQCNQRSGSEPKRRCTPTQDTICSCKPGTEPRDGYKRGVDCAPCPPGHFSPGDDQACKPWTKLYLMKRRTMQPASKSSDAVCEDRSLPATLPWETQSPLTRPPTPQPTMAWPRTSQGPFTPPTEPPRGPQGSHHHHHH

For M13KO7, the ELISA signal, Coating: OX-40 was 0.35.
